Assay results: PMC549407

Target: HIV-1 integrase (IN), recombinant, from the San Francisco isolate SF2 (HIV-1 (San Francisco isolate SF2))
Assay: cross-linking

Question: Which stoichiometry N does the source give for “HIV-1 integrase (IN), recombinant, from the San Francisco isolate SF2 (enzyme)” here?
Answer: 2
